Results published in PMC10319324, “Ηigh-resolution structure of mammalian PI31–20S proteasome complex reveals mechanism of proteasome inhibition” (The Journal of Biological Chemistry, 2023).
Positions count from the first letter of the chain named. Numbers in names are those of the source.

T1: recombinant wildtype human PI31 (Proteasome Inhibitor of 31,000 Da) (human, UniProt Q92530 1-271)
T1 construct: PI31, product of the PSMF1 gene, human; The methods name a pET28a(+) vector with N-terminally tagged wildtype hPI31 and 'His-PI31 (wildtype)' for mass photometry; Exists in a monomer-dimer equilibrium; also called hPI31; hPI31^WT; source: E. coli, purified; not shown: His tag, N-terminal, kept
T1 sequence (looked up): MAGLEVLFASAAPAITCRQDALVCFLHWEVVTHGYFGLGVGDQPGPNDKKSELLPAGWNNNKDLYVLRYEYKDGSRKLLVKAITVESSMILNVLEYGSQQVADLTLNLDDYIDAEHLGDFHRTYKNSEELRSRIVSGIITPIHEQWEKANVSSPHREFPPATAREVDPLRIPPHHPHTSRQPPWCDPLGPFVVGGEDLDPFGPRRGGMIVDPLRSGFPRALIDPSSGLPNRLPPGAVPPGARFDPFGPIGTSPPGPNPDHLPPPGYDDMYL

B1: human PI31 V6R dimerization mutant (natural protein, UniProt Q92530 1-271, looked up)
chain: T1 sequence (looked up) with V6R
notes: PI31, product of the PSMF1 gene, human; point mutation V6R in the FP domain, made on the pET28a(+)-HisPI31^wt template; also called hPI31^V6R; source: E. coli BL21 Star (DE3), purified (Ni-NTA); not shown: His tag, N-terminal, kept
B2: human PI31 C-terminal domain, residues 152-271 (domain or fragment, UniProt Q92530 152-271, looked up)
chain: SSPHREFPPATAREVDPLRIPPHHPHTSRQPPWCDPLGPFVVGGEDLDPFGPRRGGMIVDPLRSGFPRALIDPSSGLPNRLPPGAVPPGARFDPFGPIGTSPPGPNPDHLPPPGYDDMYL
B3: β2 subunit of the bovine 20S proteasome (natural protein, UniProt Q2TBP0 44-277, looked up)
chain: TTIAGVVYKDGIVLGADTRATEGMVVADKNCSKIHFISPNIYCCGAGTAADTDMTTQLISSNLELHSLSTGRLPRVVTANRMLKQMLFRYQGYIGAALVLGGVDVTGPHLYSIYPHGSTDKLPYVTMGSGSLAAMAVFEDKFRPDMEEEEAKKLVSEAIAAGIFNDLGSGSNIDLCVISKSKLDFLRPYSVPNKKGTRFGRYRCEKGTNAVLTEKVTTLEIEVLEETVQTMDTS
notes: Stood in the assay as a subunit of the assembled 20S proteasome; also called β2 active site; β2 catalytic site; source: purified from bovine red blood cells, as part of the 20S proteasome
B4: β5 subunit of the bovine 20S proteasome (natural protein, UniProt Q32KL2 60-263, looked up)
chain: TTTLAFKFRHGVIVAADSRATAGAYIASQTVKKVIEINPYLLGTMAGGAADCSFWERLLARQCRIYELRNKERISVAAASKLLANMVYQYKGMGLSMGTMICGWDKRGPGLYYVDSEGNRISGATFSVGSGSVYAYGVMDRGYSYDLEVEEAYDLARRAIYQATYRDAYSGGSVSLYHVREDGWIRVSSDNVADLHDKYSGSTH
notes: Stood in the assay as a subunit of the assembled 20S proteasome; also called β5 active site; β5 catalytic site; source: purified from bovine red blood cells, as part of the 20S proteasome

Assays:
bovine 20S proteasome = bovine 20S proteasome (bovine, UniProt Q2YDE4 1-246; Q3T0Y5 1-234; Q3ZCK9 1-261; Q3ZBG0 1-248; Q5E987 1-241; Q3T0X5 …); test: cell-based or functional assay
[1] = biological target: the molecule itself; test: mass photometry; monomer to dimer; His-PI31 diluted to 40 nM total monomer in PBS, recorded immediately after mixing (TwoMP, Refeyn); peaks at 36 to 37 and 56 to 59 kDa
[2] = biological target: T1, recombinant wildtype human PI31 …; test: cryo-EM structure; purified hPI31 and bovine 20S mixed at a molar ratio of 5:1, 37 °C for 1 h in 20 mM Tris, pH 7.5, 5 mM MgCl2, 100 mM KCl, 1 mM DTT; latent closed-gate 20S; C1 map at 2.54 Å; settings: both partners purified

Row | Binder | [monomer] at 50% inhibitory activity against SDS-activated 20S (50 nM), PI31 up to 10-fold molar excess (bovine 20S proteasome) [nM] | [monomer]/[M]T ratio [1] | inhibition of the catalytic activity of each subunit type (β1, β2, β5 peptide substrates), PI31 at 10- to 20-fold molar excess (bovine 20S proteasome) [%] | binding result [2]
1 | B1 | 108 | 0.54 |  | 
2 | B2 | 200 |  | > 95 | 
3 | B3 |  |  |  | binds
4 | B4 |  |  |  | binds
